The results in this text go back to PMC3155373 (2011).

In this assay the target is Green fluorescent protein (acid-denatured) (Aequorea victoria, UniProt P42212 = GFP). Description: GFP refolding fluorescence kinetics (one-site fit, apparent Kd).

B1: Protein disulfide isomerase (HuPDI) (protein)
chain: not shown
As for B1, the Kd stood at 180 nM.

B2: Protein disulfide isomerase (YPDI) (protein)
chain: PEDSAVVKLATDSFNEYIQSHDLVLAEFFAPWCGHCKNMAPEYVKAAETLVEKNITLAQIDCTENQDLCMEHNIPGFPSLKIFKNSDVNNSIDYEGPRTAEAIVQFMIKQSQPAVAVVADLPAYLANETFVTPVIVQSGKIDADFNATFYSMANKHFNDYDFVSAENADDDFKLSIYLPSAMDEPVVYNGKKADIADADVFEKWLQVEALPYFGEIDGSVFAQYVESGLPLGYLFYNDEEELEEYKPLFTELAKKNRGLMNFVSIDARKFGRHAGNLNMKEQFPLFAIHDMTEDLKYGLPQLSEEAFDELSDKIVLESKAIESLVKDFLKGDASPIVKSQEIFENQDSSVFQLVGKNHDEIVNDPKKDVLVLYYAPWCGHCKRLAPTYQELADTYANATSDVLIAKLDHTENDVRGVVIEGYPTIVLYPGGKKSESVVYQGSRSLDSLFDFIKENGHFDVDGKALYEEAQEKAAEEADADAELADEEDAIHDEL
For B2, the Kd is 300 nM.
